Assay results from patent US6545137.

Molecular target: low-density lipoprotein (LDL), 125I-labelled
Test: cell-based or functional assay

Substance	LDL uptake (40 ug/ml 125I-LDL, 4 h, 37 C, FH fibroblasts infected with LDL-receptor adenovirus)	LDL uptake (40 ug/ml 125I-LDL, 4 h, 37 C, FH fibroblasts infected with LRP5 adenovirus)
human LDL-receptor (from UniProt P01130 22-860)	20 fold	
human LRP5 (LDL-receptor related protein-5), isoform 1 (from UniProt O75197 32-1615)		60 % increase
